Experimental data: the DeepSol protein solubility set

assay: soluble on expression in E. coli; label from the status in PepcDB or PDB records

Soluble on expression in E. coli, not soluble:
MGSDKIHHHHHHMATTESFAQTLAAKQPRLLAAFKHIIAQNHLAHAYLFAGMEGAGQPELAHWIAQRLFCLHINDGEPDGTCEECVRIANGSHPDIVTVAPEGQRIHVDQVRYLKAEFSKSAVEGNRKLFIINDAEKMTASAANSLLKFIEEPSGNVTALLLTTNKQLMLPTIISRTQVIEFPPLNAQALQQTFEQAGIAPNQAQMLRGLTNSVTQAQALLADDWLPQAAQALWRWFDQAVKGDPRSFVAVQVNLVGLAKDADHQLVMLDLIAALFQDLLQLHFEVATTALTFGQYQKELAGLTAEVSDEQLIAATELALTAKRQLASNISFQNVLEGLTLKLWPIFQTNA
MLPDVQLLKPEVPIGLSRVGATGIKKLVEVQREGKRPIILISTFDVFVDLPAHLKGVNLSRNFEVIDEVLETLTAKPIENIEDLVVEIADHLLKRHEYATKAEARMNSELIMRKRTPKTGQRTQEVVKIFGEATLGRDGSKVIMVGVEVTGITACPCAQELVKASSAERLAKMGFDEETIQKILDAIPVATHNQRGRATLKVQVTDSFKVPIAKLIDVAKSSMSYETYEILKREDELAVVEAAHRNTRFVEDGVRYMAMELLKTFPNAPDDILVFLRQENEESIHQHNVVAERFA
TLTTTPNQLTDGLEKSLRPLNKIHVPVHEIAMMMSIALRFIPILLEETDKIMKAQIARGADFENGNLIQKVKNMVPLLVPLFISAFRRANDLAMAMEARCYHGGDNRTQMKPLKYKKRD
MVLEHCRDAIESHGVETDIISLRGMKIESCRACLSCAKKHRCRIDDGLNDIIDRIRDSEGFIVATPVYFGTARGDLMAALQRIGMVSRASDGFLSWKVGGPIAVARRGGHTATIQELLMFYFINDMIVPGSTYWNMVFGWAPGEVEDDSEGIETIRRFGENVAELIKRINGGSLEHHHHHH
MSKAIKQNLADSKKMSAELFCLTYGAMVTEMLKDYEDPKDVTIQLDKMGFNMGTRLADDFLAKNANVPRCVDTRQIADVLCRNAIPCYLGISATASSWTSGDREFTITLEANPLTELVQVPAHLVSAGLSYSQLIAGAIRGALEAVHFKVYASATDTGANTEIRIRFDQVLKDSLPAGEDD
MNYGFVKVAAAVPHVKVADCKFNVERIESQIAIAEGKGVQIIVFPEMSITGYTCGDLFGQQILLEEAEMGLMQILNNTRQLDIISIVGMPVVVNSTVINAAVVIQKGKVLGVAAKTYLPNYKEFYEQRWFTSALQLTEDTVRLCGQIVPIGANLLFETSDTTFGIEICEDLWATIPPSSSLALQGAEIIFNMSADNEGIGKHHYLCSLISQQSARCIAGYVFSSCGFGESTTDVVFAGNGLIYENGSLLARSKRFCMEEQLIISEIDVERIRAERRINTTFAASQGNPGDKKAISVATEFVNSKELTLTRDFNSHPFVPQGAELDEHCEEVFSIQIAGLAQRLVHTKAKTAVVGISGGLDSTLALLVCVKTFDKLGLPRKDILGVTMPGFGTTDRTYNNAIDLMKSLGISIREISIQDACIQHFKDIDHDINVHDVTYENSQARERTQILMDIANQTWGMVVGTGDLSELALGWATYNGDHMSMYGVNGSIPKTLVKYLVQWVAENDMDEDAKATLLDIVDTPISPELIPADENGEIKQKTEDLVGPYELHDFFLYYFLRFGFRPSKIYYLANIAFKDVYDKETIKKWLSTFFRRFFNQQFKRSCLPDGPKVGSISISPRGDWRMPSDASSTIWLKEIEDLLEHHHHHH
MASEASVRLGVPPGRLWIQRPGIYEDEEGRTWVTVVVRFNPSRREWARASQGSRYEPSITVHLWQMAVHTRELLSSGQMPFSQLPAVWQLYPRRKYRAADSSFWEIADHGQIDSMEQLVLTYQPERKD
MGHHHHHHSHNSSSCPEIQGFLHVKELGKKSWKKLYVCLRRSGLYCSTKGTSKEPRHLQLLADLEDSNIFSLIAGRKQYNAPTDHGLCIKPNKVRNETKELRLLCAEDEQTRTCWMTAFRLLKYGMLLYQNYRIPQQRKALLSPFSTPVRSVSENSLVAMDFSGQTGRVIENPAEAQSAALEEGHAWRKRSTRMNILGSQSPLHPSTLSTVIHRTQ
MGSDKIHHHHHHMDFTEYQEEIIEDVKSCLESLQVQPILFMGAGISQRYIKAPDWEGLLKQLAEICPLIKRHYGYYSQTKGDNKPLIASDFCDFYAEWAWDDGKDRYPETYFEGTTPKDIYIKHEIASILNELSNSVDFSNMEYTEEVQKLRKVKPHAIITTNYDDTLEKIFDNYQAIVGHNVVKVNYSSYGEIMKIHGSSHEVESIVITNEDYVDFYKRKKYISAKLLTYFAEHPLFFFGYSINDENIKAILSDIDEIIAPNNALIPNIYLVSFSKDCEATGSHQKELLIGVGENKSIRIKVIYANDFGWIFDALSSNTPEISVNPKLVRAFLARTYTFASESLVKQELPYDFEMFRDIAEHDDALAKMYGIAELNNGQALNASFPYTMSDLARILDMGSWHYVNQEFEKLRKLTDFNIKASDNNYHVFIKSGKSGVGKYSSEALDLLRKLINGEQFELNP
MENNNSPTNAAEHNQKIDPRNYDDVLSVAASIREQVGEDVARADLGIICGSGLGPIGDTVQDATILPYSKIPGFPTTHVVGHKGNMIFGKLGGKKVVCLQGRFHPYEHNMDLALCTLPVRVMHQLGIKIMIVSNAAGGINAVLRHGDLMLIKDHIFLPALAGFSPLVGCNDPRFGARFVSVHDAYDKQLRQLAIDVGRRSDMTLYEGVYVMSGGPQYESPAEVSLFKTVGADALGMSTCHEVTVARQCGIKVLGFSLITNIANLDADASVEVSHEEVMDIAQQAGERASRFVSDIITEITL
MGSDKIHHHHHHHEEADYSQEAHHLVEFGTLLQDDPNVIVPKYHADLSTRDVLAMDFVPSHPIDDLEAADQSERDRVATQLIALMMREVFSFQRVQSDPNFANFRWQPDTGRVVLLDFGATRVLSDNLVNAARQVLRPALDNDLTALANALRELGLLDDALPDQARKTILEMVALANEPMMDPDGFDFGNTSLVTELRTSGMALGQDRSIQSIPPIEVLYLQRKAAGLFLLATRLRARVDLRSLFKS
MKNIAIIGASGYTGAQLTALVHAESELSIQGLYVSENSLDKGRALADLYPVYSHIELTLSPLTEEAKANIVAEADAVVLATEHSVSLHLAAWFYSQGLAVFDLSGAYRFSDVAQYPKWYGFEHEYPEVLAKAVYGLAEWNAKDVAATKMIAVPGCYPTASLTALKPLKNLLTSAYPVINAVSGVTGAGRKAQLHTSFCEVSLTPYGVLGHRHQPEIATQLGQEVIFTPHLGNFKRGILATITVQLKPGTTTADVAAAYSVYDQAPLVTVKQNQFPKVDDVVLTPNCHLGWKFDESSGYLVVASAIDNLMKGAASQALQCIKIHFNL
MGSDKIHHHHHHMDYSSKDIKSIISEILDKKKAKGGVKSIYVVGCGGSLGALYPAKTFMEKECTSIKSAWINSSEFIHSTPKDFGVNSIICLACHKGNTPETIAAAKLGKEMGATVIILTWLKESEIIEFGDYIIRYTFDASPDHLKGDIDYSGEKTICALLVAVELLAQTEGYENYNKFYEGTKMISNIIKNARNHVAERAVKFAEKYKDDSVIYTMGSGASYGAAYMESICIFMEMQWLNSSSIHTGEYFHGPFEITDANRPFMIQISEGSTRDLDERALKFLNTYAKRIEVLDAKELGLSTIDASVVDYFNHSLFNNVYPIYNHELATKREHPLPTRRYMWKVEY
MGNCNARPATFKPKNLPMEYPKKYAMYPTRRRMRASERRTYKRDCKNLLESVAGENPFEGDEETANNYTEAIFSISIKAKVLKTYMDLIESSINEECPVNGHIQLFCNEINNLSHLYEVFFRKSIVSVDTRVEERKEIARAAYRDIKNLTIIIYLNKERSKTLLQSVMMHTEFQTHQAEKLVEHYEATFSPILKEVLPDPNAPRIHRTPTRAQIIAFWEEVRREKESGTLGTPF
MIKLENELLLVEMKEAGAELTRIFHKDTKLEYLWNADSTFWGRHSPVLFPTVGRLVEDTYFVDGNPYHLGQHGFARDRDFKVVEHTENAVRFELDADEDSLTIYPYKFKLSIIYTIEKDSVAVSYEVENTDNKRIYFSIGAHPAFNLPLADGTTFEDYYLDFGTEENLETLCLEGPYRSGKIEKVVNEPARYLPLSYDLFKNDALIFEGLKQKEITIKSDKTPHFVKVSFPEFPFVGVWTAKAGTPFLCIEPWYGIADGAGKSVELRDKAGIEHLEPEAVFASEYKITIGLEHHHHHH

Soluble on expression in E. coli, soluble:
MRVLATAADLEKLINENKGRLIVVDFFAQWCGPCRNIAPKVEALAKEIPEVEFAKVDVDQNEEAAAKYSVTAMPTFVFIKDGKEVDRFSGANETKLRETITRHK
MSLLRFGIISTAKIAQDHVIPAIQDAENCVVSAIASRDHARARAVAERFSVPHAFGSYEEMLASDVIDAVYIPLPTAQHVEWTIKAANAGKHVLCEKPIALKAEEIDTLIAARDRNGVIVSEAFMVTYSPVWAKVKELLASGAIGTLKHVQGAFSYFNRDPGNMRNIPELGGGALPDIGVYPTIVTRFATGAEPRRVQATVERDREFGTDIYSSVRADFGTFELSFYLATQLASRQLMVFHGTDGYIEVKSPFNANRWGAEEIELTNQAHNQSQVFRFQDSRQYKLEAEAFARAVRGEGEVVTLENSRKNQLFIDAIYRAAEKDGWETVEGHHHHHH
KTNTATVKVLPISMSDEGDSFLVKDSLGENKIPKNPSKVVILDLGILDTFDALKLNDKVVGVPAKNLPKYLQQFKNKPSVGGVQQVDFEAINALKPDLIIISGRQSKFYDKLKEIAPTLFVGLDNANFLSSFENNVLSVAKLYGLEKEALEKISDIKNEIEKAKSIVDEDKKALIILTNSNKISAFGPQSRFGIIHDVLGINAVDENIKVGTHGKSINSEFILEKNPDYIFVVDRNVILGNKERAQGILDNALVAKTKAAQNKKIIYLDPEYWYLASGNGLESLKTMILEIKNAVK
MGSDKIHHHHHHMAHIFVYGTLKRGQPNHKVMLDHSHGLAAFRGRGCTVESFPLVIAGEHNIPWLLYLPGKGHCVTGEIYEVDEQMLRFLDDFEDCPSMYQRTALQVQVLEWEGDGDPGDSVQCFVYTTATYAPEWLFLPYHESYDSEGPHGLRYNPRENR
MIDKKTYNEIGVHIPSILLPKEGIDMQKWSVVACDQYTSEPEYWEEVEKKVGDNPSTLHLIFPEIYLEHGNADERIKRINNEMKRYINEGILVSQKPCMLLVDRSTPHTKSRKGLILAVDLEKYDYSAGSQTLIRATEGTVIERLPPRVKIRENAILELPHVMLLIDDPDKTVIEPLAGKLDSFEKVYDFELMMNGGHIRGYRIDDGETLKGILKAIEALADPEVFKSKYKVGDDKGVLLFAVGDGNHSLASAKVHWENVKKSLSEAEVEDHPARFALVEVVNVHDDGIVFEPIHRVLFNIEPESVLNALQDFFGSSCCSLEKFDSLESVNKRLSELKREEAVHSFGFVTDRSFGVFTVQNLKHNLEVATLQGFLDYYLGKQKEAKVDYIHGEDVVTKLGSKPGNIGFYLPSMEKHDLFKTVILDGVLPRKTFSMGEAEEKRFYLECRKIVKD
MANMKENEKVIMEKGIHTDFKENMTYGEYLQLDSLLSSQKRLSDHHDEMLFIVIHQASELWMKLILHELNAAIEFIKQDKLQPAFKMLARVSKIQSQIIQSWDILATLTPSEYIEFRDSLGQASGFQSYQYRMIEYALGYKTPHALKIYEKDPELHARLHKALHAPSLYDVAIQALVKEGFPIHKDVLNRDITQPYEEDATVEAAWLEVYADVKKYWNLYQLAEKLIDIEDWLQQWRFRHMKTVERIIGHKMGTGGSSGVSYLKRVLDQQFFPELWNVRTKLMAGDPNSLEHHHHHH
